Experimental data published in patent US20130209454A1.

Experiments:
Assay in all cases: cell-based or functional assay
[1] = molecular target: Env of HIV-1 strain 3016.v5.c45 (HIV-1)
[2] = molecular target: Env of HIV-1 strain PVO.4 (HIV-1)
[3] = molecular target: HIV-1 Env of strain T255-34 (HIV-1)
[4] = molecular target: HIV-1 Env of strain 1012_11_TC21_3257 (HIV-1)
[5] = molecular target: HIV-1 Env of strain Ce2010_F5 (HIV-1)
[6] = molecular target: Env of HIV-1 strain BJOX015000.11.5 (HIV-1)
[7] = molecular target: HIV-1 Env of strain Q769.d22 (HIV-1)
[8] = molecular target: Env of HIV-1 strain 249M B10 (HIV-1)
[9] = molecular target: HIV-1 Env of strain CNE58 (HIV-1)
[10] = molecular target: HIV-1 Env of strain 3365.v2.c2 (HIV-1)
[11] = molecular target: HIV-1 Env of strain Ce0682_E4 (HIV-1)
[12] = molecular target: HIV-1 Env of strain CNE21 (HIV-1)
[13] = molecular target: Env of HIV-1 strain ZM247v1(Rev-) (HIV-1)
[14] = molecular target: Env of HIV-1 strain CAP45.2.00.G3 (HIV-1)
[15] = molecular target: Env of HIV-1 strain 231966.c02 (HIV-1)
[16] = molecular target: HIV-1 Env of strain C4118.c09 (HIV-1)
[17] = molecular target: Env of HIV-1 strain A07412M1.vrc12 (HIV-1)
[18] = molecular target: HIV-1 Env of strain 235-47 (HIV-1)
[19] = molecular target: HIV-1 Env of strain ZM135M.PL10a (HIV-1)
[20] = molecular target: Env of HIV-1 strain 211-9 (HIV-1)
[21] = molecular target: HIV-1 Env of strain SC05_8C11_2344 (HIV-1)
[22] = molecular target: HIV-1 Env of strain 3817.v2.c59 (HIV-1)
[23] = molecular target: HIV-1 Env of strain QH0692.42 (HIV-1)
[24] = molecular target: HIV-1 Env of strain Ce0393_C3 (HIV-1)
[25] = molecular target: Env of HIV-1 strain 263-8 (HIV-1)
[26] = molecular target: Env of HIV-1 strain BJOX028000.10.3 (HIV-1)
[27] = molecular target: HIV-1 Env of strain 3016.v5.c45 (HIV-1)
[28] = molecular target: Env of HIV-1 strain 1054_07_TC4_1499 (HIV-1)
[29] = molecular target: Env of HIV-1 strain CAP210.2.00.E8 (HIV-1)
[30] = molecular target: HIV-1 Env of strain 211-9 (HIV-1)
[31] = molecular target: Env of HIV-1 strain CNE30 (HIV-1)
[32] = molecular target: Env of HIV-1 strain 6041.v3.c23 (HIV-1)
[33] = molecular target: Env of HIV-1 strain 3103.v3.c10 (HIV-1)
[34] = molecular target: Env of HIV-1 strain Q23.17 (HIV-1)
[35] = molecular target: HIV-1 Env of strain 6240_08_TA5_4622 (HIV-1)
[36] = molecular target: HIV-1 Env of strain X1254_c3 (HIV-1)
[37] = molecular target: HIV-1 Env of strain 928-28 (HIV-1)
[38] = molecular target: HIV-1 Env of strain Ce1176_A3 (HIV-1)
[39] = molecular target: Env of HIV-1 strain 3817.v2.c59 (HIV-1)
[40] = molecular target: HIV-1 Env of strain X1193_c1 (HIV-1)
[41] = molecular target: Env of HIV-1 strain Q769.d22 (HIV-1)
[42] = molecular target: Env of HIV-1 strain 235-47 (HIV-1)
[43] = molecular target: HIV-1 Env of strain ZM214M.PL15 (HIV-1)
[44] = molecular target: Env of HIV-1 strain CAAN5342.A2 (HIV-1)
[45] = molecular target: Env of HIV-1 strain ZM249M.PL1 (HIV-1)
[46] = molecular target: Env of HIV-1 strain Ce2010_F5 (HIV-1)
[47] = molecular target: Env of HIV-1 strain THRO4156.18 (HIV-1)
[48] = molecular target: HIV-1 Env of strain 620345.c01 (HIV-1)
[49] = molecular target: HIV-1 Env of strain CNE17 (HIV-1)
[50] = molecular target: HIV-1 Env of strain HIV-16845-2.22 (HIV-1)
[51] = molecular target: HIV-1 Env of strain 191084 B7-19 (HIV-1)

Sequence of NIH45-46 (antibody) (VH): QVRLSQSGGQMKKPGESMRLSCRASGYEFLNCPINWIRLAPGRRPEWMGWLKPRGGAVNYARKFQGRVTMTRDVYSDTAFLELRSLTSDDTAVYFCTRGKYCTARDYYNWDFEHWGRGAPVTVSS
Sequence of NIH45-46 (antibody) (V domain): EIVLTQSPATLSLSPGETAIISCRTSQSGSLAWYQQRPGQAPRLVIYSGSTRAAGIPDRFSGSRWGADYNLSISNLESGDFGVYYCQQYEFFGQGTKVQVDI

## NIH45-46 (antibody)
[1]
  IC80: > 50 µg/mL
[2]
  IC80: 0.41 µg/mL
[3]
  IC50, pseudovirus neutralization: 0.71 µg/mL
[4]
  IC50, pseudovirus neutralization: 0.01 µg/mL
[5]
  IC50, pseudovirus neutralization: 0.101 µg/mL
[6]
  IC80: 0.38 µg/mL
[7]
  IC50, pseudovirus neutralization: 0.009 µg/mL
[8]
  IC80: 0.17 µg/mL
[9]
  IC50, pseudovirus neutralization: 0.43 µg/mL
[10]
  IC50, pseudovirus neutralization: 0.029 µg/mL
[11]
  IC50, pseudovirus neutralization: 0.054 µg/mL
[12]
  IC50, pseudovirus neutralization: 6.01 µg/mL
[13]
  IC80: 24.5 µg/mL
[14]
  IC80: > 50 µg/mL
[15]
  IC80: 9.64 µg/mL
[16]
  IC50, pseudovirus neutralization: 0.14 µg/mL
[17]
  IC80: 0.13 µg/mL
[18]
  IC50, pseudovirus neutralization: 0.3 µg/mL
[19]
  IC50, pseudovirus neutralization: 0.59 µg/mL
[20]
  IC80: > 50 µg/mL
[21]
  IC50, pseudovirus neutralization: 0.14 µg/mL
[22]
  IC50, pseudovirus neutralization: > 50 µg/mL
[23]
  IC50, pseudovirus neutralization: 0.72 µg/mL
[24]
  IC50, pseudovirus neutralization: 0.334 µg/mL
[25]
  IC80: 0.1 µg/mL
[26]
  IC80: > 50 µg/mL
[27]
  IC50, pseudovirus neutralization: > 50 µg/mL
[28]
  IC80: 0.404 µg/mL
[29]
  IC80: > 50 µg/mL
[30]
  IC50, pseudovirus neutralization: > 50 µg/mL
[31]
  IC80: 1.07 µg/mL
[32]
  IC80: 0.04 µg/mL
[33]
  IC80: 6.15 µg/mL
[34]
  IC80: 0.5 µg/mL
[35]
  IC50, pseudovirus neutralization: 0.44 µg/mL
[36]
  IC50, pseudovirus neutralization: 0.032 µg/mL
[37]
  IC50, pseudovirus neutralization: 0.23 µg/mL
[38]
  IC50, pseudovirus neutralization: 0.93 µg/mL
[39]
  IC80: > 50 µg/mL
[40]
  IC50, pseudovirus neutralization: 0.021 µg/mL
[41]
  IC80: 0.033 µg/mL
[42]
  IC80: 1.49 µg/mL
[43]
  IC50, pseudovirus neutralization: 0.17 µg/mL
[44]
  IC80: 0.4 µg/mL
[45]
  IC80: 0.053 µg/mL
[46]
  IC80: 0.357 µg/mL
[47]
  IC80: 8.22 µg/mL
[48]
  IC50, pseudovirus neutralization: > 50 µg/mL
[49]
  IC50, pseudovirus neutralization: 0.261 µg/mL
[50]
  IC50, pseudovirus neutralization: 5 µg/mL
[51]
  IC50, pseudovirus neutralization: 0.02 µg/mL
